# Source: paper PMC10628242, “Enzymatic β-elimination in natural product O- and C-glycoside deglycosylation” (Nature Communications, 2023)
# B1: AtOGE (Agrobacterium radiobacter) (protein)
# chain: KLDDSKTLPIAAQMYTLRNAGTLEEQLAILNRAGVSAVETVDMQKVSASELNALLEKHKIKVISSHVPIDKLRGNLDEVITEQKAVGNPVVTVPFLKPEDRPKDAAGWTAFGKELGGYADKLSAAGLSMAYHNHDFEMVKFDGKTALELLLDAAGPKLQSELDVAWVARSGNDPAEFLGTLNGRVFAIHAKDDAPAGTAENERGFATIGTGVLDWKTILPAAKHAGAQWFILEHDLPLDAEAVVTKGNAFLSERLPTIQ
# notes: N-terminal Strep-tag II kept in assays (cut by TEV only for crystallization); E. coli Lemo21(DE3); 29,895 Da subunit; Mn2+ enzyme; dimer in crystal
# B2: PuCGE (human intestinal bacterium PUE) (protein)
# chain 1: MSNVKLGVTLYSFSTEYCQGKMTLEDCIRTAKELGAAGFEIVATQMIPSYPYVSDKFLGELKSICQYYDMEPVCYGANCDRGLRGDRNLTGDEMVAMAVRDIKNAHKMGCKVVREQWLMGPENFAKLAPFAEHYGVKVGIEVHNPETPITQSTKDYIAAIDKTGSKYLGLIPDFGCFANKPNKMNWDNALADGADKKLLEMARDMKYDNVPYDEAVKRLTAAGAKKVELTTMRDMYTFLTFKKDVSAELQGLKDMIPYCIHMHGKYHYMYENLQEAAIPYDDIMKIVSESDYDGYIVSEYEEYNSGHSIEMLRRHLKMMHNFVD
# chain 2: MGLALRLNFVDVVCDDSLKNFWANGKKIGYQFDVRLSYYRGHFLSTIDEIGVKVDGVDVPAENISLCLDGKEYGVAELHDLVNVFWPIIEPATIKVFQPGGLSEEEHDVDFTLYFRSPYMALSETEYQSIDSCGSKRLNVQN
# notes: heterodimer alpha (39,205 Da) + beta (18,313 Da), co-expressed from pET-Duet-1 in E. coli; N-terminal Strep-tag II; Mn2+ enzyme
# B3: BglT (Thermotoga maritima MSB8) (protein)
# chain: MRIAVIGGGSSYTPELVKGLLDISEDVRIDEVIFYDIDEEKQKIVVDFVKRLVKDRFKVLISDTFEGAVVDAKYVIFQFRPGGLKGRENDEGIPLKYGLIGQETTGVGGFSAALRAFPIVEEYVDTVRKTSNATIVNFTNPSGHITEFVRNYLEYEKFIGLCNVPINFIREIAEMFSARLEDVFLKYYGLNHLSFIEKVFVKGEDVTEKVFENLKLKLSNIPDEDFPTWFYDSVRLIVNPYLRYYLMEKKMFKKISTHELRAREVMKIEKELFEKYRTAVEIPEELTKRGGSMYSTAAAHLIRDLETDEGKIHIVNTRNNGSIENLPDDYVLEIPCYVRSGRVHTLSQGKGDHFALSFIHAVKMYERLTIEAYLKRSKKLALKALLSHPLGPDVEDAKDLLEEILEANREYVKLG
# notes: N-terminal Strep-tag II; E. coli; 48,997 Da; GH4, Mn2+ and NAD+ dependent
# B4: GlvA (Bacillus subtilis subsp. subtilis str. 168) (protein)
# chain: MKKKSFSIVIAGGGSTFTPGIVLMLLDHLEEFPIRKLKLYDNDKERQDRIAGACDVFIREKAPDIEFAATTDPEEAFTDVDFVMAHIRVGKYAMRALDEQIPLKYGVVGQETCGPGGIAYGMRSIGGVLEILDYMEKYSPDAWMLNYSNPAAIVAEATRRLRPNSKILNICDMPVGIEDRMAQILGLSSRKEMKVRYYGLNHFGWWTSIQDQEGNDLMPKLKEHVSQYGYIPKTEAEAVEASWNDTFAKARDVQAADPDTLPNTYLQYYLFPDDMVKKSNPNHTRANEVMEGREAFIFSQCDMITREQSSENSEIKIDDHASYIVDLARAIAYNTGERMLLIVENNGAIANFDPTAMVEVPCIVGSNGPEPITVGTIPQFQKGLMEQQVSVEKLTVEAWAEKSFQKLWQALILSKTVPNARVARLILEDLVEANKDFWPELDQSPTRIS
# notes: N-terminal Strep-tag II; E. coli; 51,960 Da; GH4, Mn2+ and NAD+ dependent
# Assays:
# [1] = substrate: O=C(CCc1ccc(O)cc1)c1c(O)cc(O)cc1O[C@@H]1O[C@H](CO)[C@@H](O)C(=O)[C@H]1O; assay: initial rates, HPLC of phloretin release; format: biochemical, Agrobacterium radiobacter; conditions: potassium phosphate pH 6.0, 5% DMSO, 37 °C, printed kcat is 10-fold above the one implied by printed kcat/Km (1.2 × 10^6 M^−1s^−1) and by 235 U/mg
# [2] = substrate: O=C(CCc1ccc(O)cc1)c1c(O)cc(O)cc1O[C@@H]1O[C@H](CO)[C@@H](O)C(=O)[C@H]1O; assay: initial rates, HPLC of phloretin release; format: biochemical, human intestinal bacterium PUE; conditions: potassium phosphate pH 6.0, 5% DMSO, 37 °C, preincubated with 5 mM MnCl2
# [3] = substrate: O=C1[C@@H](O)[C@H](c2c(O)ccc3c(=O)c(-c4ccc(O)cc4)coc23)O[C@H](CO)[C@H]1O; assay: initial rates, HPLC of daidzein release; format: biochemical, human intestinal bacterium PUE; conditions: potassium phosphate pH 6.0, 5% DMSO, 37 °C, preincubated with 5 mM MnCl2, substrate is a 2/3-keto mixture
# [4] = substrate: O=C(CCc1ccc(O)cc1)c1c(O)cc(O)cc1O[C@@H]1O[C@H](COP(=O)(O)O)[C@@H](O)[C@H](O)[C@H]1O; assay: initial rates, HPLC of phloretin release; format: biochemical, Thermotoga maritima; conditions: HEPES pH 7.5, 0.5 mM MnSO4, 0.3 mM NAD+, 37 °C
# [5] = substrate: O=C(CCc1ccc(O)cc1)c1c(O)cc(O)cc1O[C@@H]1O[C@H](COP(=O)(O)O)[C@@H](O)[C@H](O)[C@H]1O; assay: initial rates, HPLC of phloretin release; format: biochemical, Bacillus subtilis; conditions: HEPES pH 7.5, 0.5 mM MnSO4, 0.3 mM NAD+, 37 °C
protein,measurement,setting,value
B1,Km,[1],0.10 (±0.01) mM
B2,Km,[2],0.6 (±0.1) mM
same,kcat,[2],1.20 (±0.05) s^−1
same,Km,[3],0.8 (±0.1) mM
same,kcat,[3],18 (±0.4) s^−1
B3,Km,[4],300 µM
same,kcat,[4],~0.01 s⁻¹
B4,Km,[5],100 µM
same,kcat,[5],~0.02 s⁻¹
